# Experimental data: the DeepSol protein solubility set
# Test: soluble on expression in E. coli; label from the status in PepcDB or PDB records
row,Sequence,soluble on expression in E. coli
1,LLTAAYAAKEHLIMTTPYFVPSDDLLHAICTAAQRGVDVSIILPRKNDSLLVGWASRAFFTELLAAGVKIYQFEGGLLHTKSVLVDGELSLVGTVNLDMRSLWLNFEITLVIDDAGFGSDLAAVQDDYISRSRLLDARLWLKRPLWQRIAERLFYFFSPLL,not soluble
2,MNVFAFSISGGGSERSYKETEKTSAMTTTHSTKLQPSQAILFKMREDAPPLNLTEEMPPPFPTKANYLIHPVRLEHHHHHH,not soluble
3,MGSDKIHHHHHHCSEKTTTEIPETELKNISCSTQLVTHSSAQTRGAAPTTLNENDFVLYAFKKNGEGNFSYEEAKHETSVIDGGVWKYNAAFPVGTYKFIAFYNLDEKNQAALNTTITGISNQTWENILKSIVITHFPSATGQYHEDMNEIFCGKTTDEIDISSGIGGDDNEIKIKLTLERIVSRIDIKFIKVASDDDHIEVPYATGNIFGGTGTTSLTSLIFTSSNVPLKYNLNGENPDYVTGVQCQVTYAAPSFQYGEANADAVKALDYQPFPQNADAINNNMETNIKKGIAKGGAYFMGSYLLPFPSSSQTLNANIQLNKANQERTIKVPGFAVTSNYVSIITVRLKSSTDAGDNNNGNDDEHLFNPKSTFIVEIEKTYVGIHNTNVDVE,not soluble
4,MSVVSERDVDEYSKQKPETYVLQVSERERKEKYERKNPPIPLDNEYNYQDVTPSPFPFHIDAPSLVFMGRLGEEPISAHFTLTNRTCKPFWFKIKVSSRELFKVRPTNGKLENSERVVIRVIFYPNVRVPKPFCEYLHVYALFAGLGDRTAYEAFNRLDRQRTLPPKRLFTEFVWHPNIGMTQAYENGKLMEMMRAKQKLLDYRKDENDKIKTFQVDFNNVIFDHRNRVLDRMLKANVVEKEKLLYMPTPNLNLYMQNLRNQKNRSKLAVLLERRGDAFKGVQNLYAEEVLAKRTGDKMFEKYKKKKGTKGYQSLDAKLYRPVKVVRNTKNKKKKGKK,not soluble
5,SLLKKIKKALFQPKKFFQDSMWLTTSPFYLTPPRNNLFVISNLGQLNQVQSLIKIQKLTNNLLVILYTSKNLKMPKLVHQSANKNLFESIYLFELPRSPNNITPKKLLYIYRSYKKILNIIQPAHLYMLSFTGHYSYLISIAKKKNITTHLIDEGTGTYAPLLESFSYHPTKLERYLIGNNLNIKGYIDHFDILHVPFPEYAKKIFNAKKYNRFFAHAGGISINNNIANLQKKYQISKNDYIFVSQRYPISDDLYYKSIVEILNSISLQIKGKIFIKLHPKEMGNNYVMSLFLNMVEINPRLVVINEPPFLIEPLIYLTNPKGIIGLASSSLIYTPLLSPSTQCLSIGELIINLIQKYSMVENTEMIQEHLEIIKKFNFINILNDLNGVISNPLFKTEETFETLLKSAEFAYKSKNYFQAIFYWQLASKNNITLLGHKALWYYNALYNVKQIYKMEYSDIFYIDNISVDFHSKDKLTWEKIKHYYYSADNRIGRDR,not soluble
6,MAGDPMRFQKIPMNIYEKFHRTFSGSNQDTFNVCSKCGGACEHNKIGTLLPGEKEYMAKKMGMSLSEFKLKYLDVLKMDDGTLIHVLKLGELCPFLNTETELCECRDFKPVICKIYPVVFTVESGKVKFSIDDWCQLSRKKVCRNYFESVIPLLYRLPVPVEWFRHVVSYDDLYFDYDQLRESRKGKSRYAVFTLKELLNFQKEELACHEIETYEPETGRMELYEIKVTSPNIDFCSEIEEPTFLEHHHHHH,soluble
7,MGSSHHHHHHGGTGENLYFQGGSGRPAGTLASFLERCSARKRGRGCVVLTGAGCSTESGIPDYRGPNGQYHRADFVLLTFQKFMRDDNEKRRYWARSMLGYSTMCGASCNAAHMALQAFTKSGAVAHILTQNVDGLHHLATYGGVGDAEEEHYYKYTTSDAPLKELHGNIHNVICTSCGFFMPRARLQRELRERNPGFYEQYGADVSRTRPDGDYSAPTEAVNAMHLVMCPRCNGFFKPHVVLFGENVPKPIVEATMSLVRDKASCLLCLGTSLQVYSAYRYVLQANQLGIPVAIVNAGTTRGDAIADLKLDVESVGSVLAETAHEMLGVPASMFFRRKTIQL,not soluble
8,MAEGVADRIIGLYSLGNSTREISDWLKENLGNRVSDETISSITDRVLPEIKVWRSRILDDVYSIVWINAIHYKVTDERGCTVTRAIYNVLGIDKEGHKDLLGMYISKNEGANFWLNVLTDLQNRGVHDILIAYVDGLKGWMPPKVFFRTQYYNFVSSTRYGTPLNMSVVSIRRNSSKT,not soluble
9,MSLRDLLLIDHPLCQAVFSRQGAQLLHFQPQGERPLLWCAGEWPALSSAPVRGGIPVCWPWFGSHPNGSEWPQQGWARQREWRLLDAYADESKVVVSWQLDLEDWHVRLDARLGQRLELELCSYHEEDDDCLFSFALQPYWRVGALSRVVVHGMELESARGQRGASRIPGTWIPRGAVKQVLYHPGSLVLEDGGWNRRLRIDKNVSAGSVIWHPGSRPVEQVEPGEAERFLCIGAAGYRPGGLILAPGERMRLSLAAGLQEGHHHHHH,not soluble
10,MCMRRTLYRLMIELTNGRFTSYILRKFAQSRLSSIIIPSYVKVFQINQDEMEKGLKEYRTLHELFTRKLKEGKRSIDTDASSIVSPVDGVFADYGPIEDAKTFDIKGKRYSIVDMLGNEERAQRYAGGTYMVIYLSPSHYHRIHSPLSGSVTERFVLGRKSYPVNAAGMEYGKEPLSKNYRSVTEVNSDGEHMALVKVGAMFVNSIELLHERDTVQKGEEMAYFTFGSTVVLLFEKDMIEVVQELKSGQELRLGEKIATRLAHKMAGDPLEHHHHHH,soluble
11,LALYRCAADVQAALDYYFDSETEREDTLEAVIGQFEVKAQSVIAYIKNQEITEKMLEGHIRRMTGKLKAVKAQNQSLKDYLARNMQAAGITEIKADDGTFKASFRKSEAVVILDEAQIPAEFMREAVKTEPDKTAIRKAIESGRQVAGAKIEGRKNLQIR,not soluble
12,MKIWSSEHVFGHPWDTVIKAAMRKYPNPMNPCVVGVDVLERSVDGCGRLHSLRLLSTEWGLPGLVRAILGANRTLTYIKERSVVDPAARKMELCSTNITLTNLVSVNERLVYTPHPENPEKTVLTQEAIITVKGISLGSYLESLMATTISSNAKKGWAAIEWIIEHSESAIS,not soluble
13,MTKWKRANPNGTRDYLFEECTLIEEVEQKLRLTFLERGYEEIRTPTIEFYDVFAFQNRPIDEEKMYKFFDEKGRIIVLRPDMTIPLARVIGTQRWDTPLKVTYSGNVFRANESHSGKYNEIVQSGIEVIGIDNVRAEIECVISVIQALQKLKVQSFTIEIGQVQLYKCIVKKLSIQDEEERVLRTYIESKNYAALSNFIGEKKLDRCDETVRLLEKLPRLFGNLEVIEEAEKLASSNEMKMAIARVKEMYETIEMLGYGSYISIDLGMIQHLDYYTGVIFKGYIYEIGEEIVSGGRYDELIGNFGEMLPAVGLAVQVNQIVKALQEQQEPYERNQIDIVIHYELNRLAEAERLRNLLRKDGKNAWLSLFSNLSDTFQFARKNKIGTVVEAQNEYLVEYVWNEKWVVQKEGEASCVTFKLR,not soluble
14,MSLKNLHPIMLAGTGSDVGKSVIAAALCRIFKQDGYRPAPFKAQNMALNSYATPEGLEIGRAQAVQAEAAGVPCHTDMNPLLLKPSSDHTSQVVLNGRPIGNRNAFEYFRKEGREELRQEVNAAFDRLAARYNPIVMEGAGSISEINLRDTDLVNMPMACYADADVILVADIDRGGVFASVYGSVMLQTPEDKKRIKGVIINKFRGDIRLFESGVKMMEDLCGIPVLGIIPYYRNIHIEEEDSVGLDYKRMQAVEGKINIAVVLLRHLSNFTDFNRLERDERVHLYYTNNTEDLAKADIILLPGSKSTLDDLYELRRNGVAQAVLRAHREGVTVMGICGGYQLMGLEIHDPEGVEGEIRQLPGLGLLPVITTMQGEKVTRQVNFHFLENAETCQGYEIHMGETRPVPGEAVVPLNKLEDGGEDGCFVNQKCMGSYIHGILDNQAFIDYLLEPYAEKLECHTVLDYRTYKEEQYDKLAEHVRSHLNLPLLYQIMSGNEGHHHHHH,soluble
15,MNITIVLGDKIPSIKYGGTQRVMWYLGKELNKRGHKVTFIAGKGSSCPFAKVIELDPSVNLNTQIPTDADIVHFNIPVPEGITKPHLLTIHGNGIPANADRNIVFVSRNHAQRLGSESFVYNGLDWDDYGPANLTLSRKNYHFLGKAAWKVKNIKGAIAVVQSIKNAQLDVLGGYRLNLKMGFRFTWNPRIHFHGMVDDSKKKVIIEQSKGLIFPVTWHEPFGLAITESLYFGAPVFGTPYGALPELVSPEVGFLTAHGQEMAEHIQSAQYSPKVCHEYARDLFNSSVMAEAYLKKYETVLNGEPLNKEVPHIIDIARRLPWD,not soluble
16,MRGVVKELNDDGFGVLGNVLVPFSAPGDEVEILKIEKVKKAKIASKWKLIKSSPLRVGARCKVFGRCGGCSLQHLSYDYQLEFKGERIRRLLGVDVEVIPSPRIFGHRNRIDLAVTVEGIGFRERGKWWKIVDIQECPVFGKTSRKAIERLREFIEEERISVWNVKKDEGFLRYMVLREGKFTGEVMVNLVTKEGKLPDPSKYFDFATSIYWSVNRTKSDVSYGEVESVWGREFITEKLDDVIYLIHPNSFFQTNSYQAVNLVKKVSELVEGERVLDMYSGVGTFGIYLAKRGFKVVGFDSNEFAIEMARKNAKINKVDAVFDVATDREVEVNGFDTVIVDPPRVGLHPKLIKKLNREKPEVIVYVSCNPKTFARDIEKLEYKIDEIVALDMFPHTPHLELVAKLIV,soluble
17,MLSPIENERSEIPSPEKLKLVEEPSDDESKFSNYDSDDWETLSDDLRLLDEEWGKSGGFDVDFSKVRHRFGRGAVHLDDDNMVSEPHETNRDLLNRLSNMAISFYNDKTGIKLELVKVLRANFHPSAAITLYITFEANDPSDGNQTKRYQAVVRYLSFDIEVCSCNPEPSSS,soluble
18,IEEVYEATLDAIQGALNCDRASILLFDEAGTMRFVAARGLSEHYQRAVDGHSPWITGANEPEPIFVENVDDAEFSRELKESIVGEGIAALGFFPLVTEGRLIGKFMTYYDRPHRFADSEIGMALTIARQLGFSIQRMRAEYARRQAEE,soluble
19,MSLKVHHLNESRSQRILWLLEELSLPYEIVQHTRDAKTRLAPPSLTDVHPLGKSPVIQDGALVVIESGAIIDYIIRRHGGGRLAPDAASADYDRYQQWLHYAEGSAMLPLMLNMYVGRLGEAGAPLHPRIQSEIANHLAFVNDSLAGRDYFVGDSLTGADIQMSFVPEVAKAMGKLADYPHMAAWIGRMHARPAWKTALDKGGPYALGAEGHHHHHH,soluble
20,MKNNLPIIALDFASAEETLAFLAPFQQEPLFVKVGMELFYQEGPSIVKQLKERNCELFLDLKLHDIPTTVNKAMKRLASLGVDLVNVHAAGGKKMMQAALEGLEEGTPAGKKRPSLIAVTQLTSTSEQIMKDELLIEKSLIDTVVHYSKQAEESGLDGVVCSVHEAKAIYQAVSPSFLTVTPGIRMSEDAANDQVRVATPAIAREKGSSAIVVGRSITKAEDPVKAYKAVRLEWEGIKS,soluble
21,MIDTTVFQDKTAVYYTLGCKLNFSETSTIGKILREAGVRTARKGEKADLCIVNTCSVTEMADKKCRQAIHRLVKQHPGAFVVVTGCYAQLKPGDVAKIEGVDVVLGAEQKKDLLQYLGDLHKHEGGEAYTTATKDIRSFAPSCSRGDRTRFFLKVQDGCDYFCSYCTIPFARGRSRNGTIASLVEQARQAAAEGGKEIVLTGVNIGDFGKSTGETFFDLVKALDRVEGIERYRISSIEPNLLTDEIIEYVSRSRSFMPHFHIPLQSGSDEVLQLMRRRYGTELFASKIAKIKEVMPDVFIGVDVIVGTRGETAGYFEKAYEFIHGLDVTQLHVFSYSERPGTQALKIDHVVTPEEKHQRSQRLLALSDEKTKAFYARYIGQTMPVLMEKPKAGALMHGFTANYIRVEVESDAALDNKVVNVLLGDFNEEGTALKGTITQLEHHHHHH,not soluble
